Assay results published in doi:10.1101/2023.06.21.544075 (bioRxiv, 2023).

Experiments:
SEC-MALS = target: the molecule itself; experiment: SEC-MALS
crystal structure = target: the molecule itself; experiment: crystal structure

Protein	stoichiometry N (SEC-MALS)	stoichiometry N (crystal structure)
hOvst-cleaved hZP2-N1N2N3 (domain or fragment) chain 1: not shown chain 2: not shown	2	–
mouse ZP2 NTR ΔN1 construct mZP2-N2N3 (domain or fragment, UniProt P20239 135-360, looked up) PAIQAETHEISEIVVCRRDLISFSFPQLFSRLADENQNVSEMGWIVKIGNGTRAHILPLKDAIVQGFNLLIDSQKVTLHVPANATGIVHYVQESSYLYTVQLELLFSTTGQKIVFSSHAICAPDLSVACNATHMTLTIPEFPGKLESVDFGQWSIPEDQWHANGIDKEATNGLRLNFRKSLLKTKPSEKCPFYQFYLSSLKLTFYFQGNMLSTVIDPECHCESPVS	–	2
